Here are results for two proteins from PMC7449927.

A short description of data set [1]: western blot, BEL7402-SIX1KO rescue cells, TMG. The note with it: glycan lost; control: wild-type SIX1, TMG-treated. A general note: Immunoblotting shows a protein as a band on a membrane.
Data set [2] is described as follows: CHX chase western blot (half-life), TMG. The note with it: glycan lost; control: wild-type SIX1, TMG-treated.
Data set [3] can be described thus: ubiquitin affinity bead pulldown, SIX1 blot, MG132 and NEM. The note with it: glycan lost; control: wild-type SIX1, TMG-treated.
A short description of data set [4]: western blot, BEL7402 and BEL7404 cells. The following applies: glycan lost; control: untreated / control lentivirus.

B1: SIX1 (sine oculis homeobox homolog 1): T276A (protein)
parent chain: MSMLPSFGFTQEQVACVCEVLQQGGNLERLGRFLWSLPACDHLHKNESVLKAKAVVAFHRGNFRELYKILESHQFSPHNHPKLQQLWLKAHYVEAEKLRGRPLGAVGKYRVRRKFPLPRTIWDGEETSYCFKEKSRGVLREWYAHNPYPSPREKRELAEATGLTTTQVSNWFKNRRQRDRAAEAKERENTENNNSSSNKQNQLSPLEGGKPLMSSSEEEFSPPQSPDQNSVLLLQGNMGHARSSNYSLPGLTASQPSHGLQTHQHQLQDSLLGPLTSSLVDLGS
B1: in data set [1], the expression_or_secretion entry is “decreases”. Besides, in data set [2], the degradation_or_half_life entry is on record as “decreases”. The “other: ubiquitination” value in data set [3] is given as “increases”.

B2: SIX1 (sine oculis homeobox homolog 1): OGT knockdown (protein)
parent chain: B1 parent chain
On to B2, for which, in data set [4], the expression_or_secretion entry is “decreases”.
